Paper PMC9363494, “C-terminal truncation modulates α-Synuclein’s cytotoxicity and aggregation by promoting the interactions with membrane and chaperone” (Communications Biology, 2022)

Target: T1, C-terminally truncated α-synuclein (residues 1-99) (UniProt P37840 1-99)
T1 construct: α-synuclein with a deletion of the C-terminus, amino acids 1-99; Uniformly 15N-enriched for the NMR experiments; also called CT-α-syn; source: E. coli BL21 (DE3), purified (SP cation exchange, Superdex 75)
Test: NMR titration; 1H-15N HSQC of 0.3 mM 15N-enriched FL- or CT-α-syn titrated with PDI (mole ratios 10:1 to 1:1, 0-300 μM PDI); 20 mM HEPES, 100 mM NaCl, 5 mM TCEP, pH 7.0, 10% D2O, 15 °C; KD from fits of the average CSPs of residues in segment 1 and in segment 2
Details: both partners purified

KD of segment 1: ~40 µM
KD of segment 2: ~400 µM
B1: protein disulfide isomerase (enzyme)
chain: not shown
notes: human protein disulfide isomerase (PDI); the human PDI gene cloned into pET-28a; The vector has a TEV protease cleavage site after the His6-tag; no cleavage step is described; also called PDI; source: E. coli BL21 (DE3), purified (HisTrap, Resource Q, Superdex 200)
